Laboratory results published in US20110263454A1, “Methods of Identifying Functional Characteristics of Promoters, Transcription Modifying Proteins and Transcription Modulating Agents” (Salk Institute for Biological Studies, priority 2008, published 2011).

B1: CAR: Constitutive Androstane Receptor (NR1I3), cDNA driver (protein, UniProt Q14994 1-352, looked up)
Nuclear receptor subfamily 1 …: MASREDELRNCVVCGDQATGYHFNALTCEGCKGFFRRTVSKSIGPTCPFAGSCEVSKTQRRHCPACRLQKCLDAGMRKDMILSAEALALRRAKQAQRRAQQTPVQLSKEQEELIRTLLGAHTRHMGTMFEQFVQFRPPAHLFIHHQPLPTLAPVLPLVTHFADINTFMVLQVIKFTKDLPVFRSLPIEDQISLLKGAAVEICHIVLNTTFCLQTQNFLCGPLRYTIEDGARVSPTVGFQVEFLELLFHFHGTLRKLQLQEPEYVLLAAMALFSPDRPGVTQRDEIDQLQEEMALTLQSYIKGQQRRPRDRFLYAKLLGLLAELRSINEAYGYQIQHIQGLSAMMPLLQEICS
B2: FXR: Farnesoid X Receptor (NR1H4), cDNA driver (protein, UniProt Q96RI1 1-486, looked up)
Bile acid receptor: MVMQFQGLENPIQISPHCSCTPSGFFMEMMSMKPAKGVLTEQVAGPLGQNLEVEPYSQYSNVQFPQVQPQISSSSYYSNLGFYPQQPEEWYSPGIYELRRMPAETLYQGETEVAEMPVTKKPRMGASAGRIKGDELCVVCGDRASGYHYNALTCEGCKGFFRRSITKNAVYKCKNGGNCVMDMYMRRKCQECRLRKCKEMGMLAECMYTGLLTEIQCKSKRLRKNVKQHADQTVNEDSEGRDLRQVTSTTKSCREKTELTPDQQTLLHFIMDSYNKQRMPQEITNKILKEEFSAEENFLILTEMATNHVQVLVEFTKKLPGFQTLDHEDQIALLKGSAVEAMFLRSAEIFNKKLPSGHSDLLEERIRNSGISDEYITPMFSFYKSIGELKMTQEEYALLTAIVILSPDRQYIKDREAVEKLQEPLLDVLQKLCKIHQPENPQHFACLLGRLTELRTFNHHHAEMLMSWRVNDHKFTPLLCEIWDVQ
B3: PXR: Pregnane X Receptor (NR1I2), cDNA driver (protein, UniProt O75469 1-434, looked up)
Nuclear receptor subfamily 1 …: MEVRPKESWNHADFVHCEDTESVPGKPSVNADEEVGGPQICRVCGDKATGYHFNVMTCEGCKGFFRRAMKRNARLRCPFRKGACEITRKTRRQCQACRLRKCLESGMKKEMIMSDEAVEERRALIKRKKSERTGTQPLGVQGLTEEQRMMIRELMDAQMKTFDTTFSHFKNFRLPGVLSSGCELPESLQAPSREEAAKWSQVRKDLCSLKVSLQLRGEDGSVWNYKPPADSGGKEIFSLLPHMADMSTYMFKGIISFAKVISYFRDLPIEDQISLLKGAAFELCQLRFNTVFNAETGTWECGRLSYCLEDTAGGFQQLLLEPMLKFHYMLKKLQLHEEEYVLMQAISLFSPDRPGVLQHRVVDQLQEQFAITLKSYIECNRPQPAHRFLFLKIMAMLTELRSINAQHTQRLLRIQDIHPFATPLMQELFGITGS

Key:
[1] = tested on: mCAR promoter; experiment: NHR-promoter luciferase screen, mCAR promoter; format: cell-based, mouse; conditions: for luciferase activity normalized to lacZ activity and to a control, mCAR: mCAR promoter-luciferase, CV-1 cells, NHR +/- ligand, control = 1.00; for Luc. act., normalized to lacZ / Normalized Luc. act., normalized to control: mCAR promoter, HR/ligand component
Outline: (§1)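 CV-1 cells were co-transfected with 50 ng NHR (homodimer or NHR/RXR heterodimer), 100 ng promoter-luciferase construct and 50 ng LacZ. Luciferase was normalized to LacZ and to a no-NHR/no-ligand control.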

[2] = tested on: mNPY promoter; experiment: NHR-promoter luciferase screen, mNPY promoter; format: cell-based, mouse; conditions: for Results of assays of transcription factor (+/- ligand) with mNPY: Table 6d, luciferase activity relative to control (control = 1.00); for Luc. act., normalized to lacZ / Normalized Luc. act., normalized to control: mNPY promoter, HR component with or without ligand; for Normalized Luc. act., normalized to control: relative to control
Outline: as §1

[3] = tested on: mDio1 promoter; experiment: NHR-promoter luciferase screen, mDio1 promoter; format: cell-based, mouse; conditions: for Luc. act., normalized to lacZ / Normalized Luc. act., normalized to control: Dio1, HR component without or with its ligand; for mDio1 promoter reporter activity: transcription factor +/- ligand, control = 1.00
Outline: as §1

[4] = tested on: hCAR promoter; experiment: NHR-promoter luciferase screen, hCAR promoter; format: cell-based, human; conditions: for luciferase activity normalized to lacZ activity and to a control, hCAR: hCAR promoter-luciferase, CV-1 cells, NHR +/- ligand, control = 1.00; for Luc. act., normalized to lacZ / Normalized Luc. act., normalized to control: hCAR promoter, HR/ligand component
Outline: as §1

[5] = tested on: mGhrelin promoter; experiment: NHR-promoter luciferase screen, mGhrelin promoter; format: cell-based, mouse; conditions: for Luc. act., normalized to lacZ / Normalized Luc. act., normalized to control: Table 8, mGhrelin; for Results of assays of transcription factor (+/- ligand) with mGhrelin: Table 6d, luciferase activity relative to control (control = 1.00)
Outline: as §1

Molecule	luciferase activity normalized to lacZ activity and to a control, mCAR [1]	Luc. act., normalized to lacZ [1]	Normalized Luc. act., normalized to control [1]	Results of assays of transcription factor (+/- ligand) with mNPY [2]	Luc. act., normalized to lacZ [2]	Normalized Luc. act., normalized to control [2]	Luc. act., normalized to lacZ [3]	Normalized Luc. act., normalized to control [3]	mDio1 promoter reporter activity [3]	luciferase activity normalized to lacZ activity and to a control, hCAR [4]	Luc. act., normalized to lacZ [4]	Normalized Luc. act., normalized to control [4]	Luc. act., normalized to lacZ [5]	Normalized Luc. act., normalized to control [5]	Results of assays of transcription factor (+/- ligand) with mGhrelin [5]
B1	0.51	19.41	0.5	0.88	74.2	0.9	4.5	1.0	1.01	0.82	25.9	0.8	52.2	1.0	1.00
B2	0.88	33.6	0.9	0.92	77.7	0.9	7.2	1.6	1.62	0.78	24.6	0.8	65.7	1.3	1.26
B3	1.49	56.8	1.5	0.83	69.8	0.8	11.3	2.5	2.52	1.16	36.5	1.2	136.2	2.6	2.61
